B1: C9orf25 (parent)
chain: LARKGSLKNGSMGSPVNQQPKKNN

Variants of: B1
Test: protein stability index of a GFP-peptide fusion (GPS, HEK-293T) (PSI 1-6); higher = more stable
Settings: c terminus: a fixed tail appended
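Note: lentivirally expressed fusions sorted by FACS into six bins by GFP to DsRed ratio, PSI derived from sequencing read proportions per bin multiplied by bin number.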

Variant | protein stability index
LARKGSLKNGSMGSYVNQQPKKNN [P15Y] | 4.4
LARKGSLKNGSMVSPVNQQPKKNN [G13V] | 4.69
LARKGSLKNGSMYSPVNQQPKKNN [G13Y] | 4.44
LARKGSLKNGSMWSPVNQQPKKNN [G13W] | 3.66
LARKGSLKNGSMTSPVNQQPKKNN [G13T] | 4.79
LARKGSLKNGSMSSPVNQQPKKNN [G13S] | 3.98
LARKGSLKNGSMGSPVNQVPKKNN [Q19V] | 4.86
LARKGSLKNGSMGSPVNQLPKKNN [Q19L] | 4.67
LARKGSLKNGSMGSPVNQSPKKNN [Q19S] | 4.89
LARKGSLKNGSMGSPVNQFPKKNN [Q19F] | 4.5
LARKGSLKNGSMGSPVNQTPKKNN [Q19T] | 4.74
LARKGSLKNGSMGSPVNQWPKKNN [Q19W] | 3.79
LARKGSLKNGSMGSPVNQAPKKNN [Q19A] | 4.92
LARKGSLKNGSMGSPVNQGPKKNN [Q19G] | 5.02
LARKGSLKNGSMGSPVNQCPKKNN [Q19C] | 4.68
LARKGSLKNGSMGSPVNQEPKKNN [Q19E] | 4.73
LARKGSLKNGSMGSPVNQMPKKNN [Q19M] | 4.74
LARKGSLKNGSMGSPVNQPPKKNN [Q19P] | 4.39
LARKGSLKNGSMGSPVNQRPKKNN [Q19R] | 4.45
LARKGSLKNGSMGSPVNQNPKKNN [Q19N] | 4.72
LARKGSLKNGSMGSPVNQIPKKNN [Q19I] | 4.85
LARKGSLKNGSMGSPVNQKPKKNN [Q19K] | 4.22
LARKGSLKNGSMGSPVNQHPKKNN [Q19H] | 4.69
LARKGSLKNGSMGSPVNQDPKKNN [Q19D] | 4.78

Variant | protein stability index
LARKGSLKNGSMGSPVNQYPKKNN [Q19Y] | 4.58
LARKGSLKNGSMGSPVNQQAKKNN [P20A] | 4.54
LARKGSLKNGSMGSPVNQQFKKNN [P20F] | 4.03
LARKGSLKNGSMGSPVNQQCKKNN [P20C] | 4.54
LARKGSLKNGSMGSPVNQQQKKNN [P20Q] | 4.72
LARKGSLKNGSMGSPVNQQNKKNN [P20N] | 4.67
LARKGSLKNGSMGSPVNQQKKKNN [P20K] | 4.36
LARKGSLKNGSMGSPVNQQLKKNN [P20L] | 4.11
LARKGSLKNGSMGSPVNQQWKKNN [P20W] | 4.1
LARKGSLKNGSMGSPVNQQRKKNN [P20R] | 4.25
LARKGSLKNGSMGSPVNQQTKKNN [P20T] | 3.92
LARKGSLKNGSMGSPVNQQYKKNN [P20Y] | 4.32
LARKGSLKNGSMGSPVNQQMKKNN [P20M] | 4.56
LARKGSLKNGSMGSPVNQQHKKNN [P20H] | 3.98
LARKGSLKNGSMGSPVNQQVKKNN [P20V] | 5.07
LARKGSLKNGSMGSPVNQQGKKNN [P20G] | 4.5
LARKGSLKNGSMGSPVNQQSKKNN [P20S] | 4.34
LARKGSLKNGSMGSPVNQQDKKNN [P20D] | 5.23
LARKGSLKNGSMGSPVNQQIKKNN [P20I] | 4.65
LARKGSLKNGSMGSPVNQQEKKNN [P20E] | 4.59
LARKGSLKNGSMGSPVNQQPKKMN [N23M] | 3.73
LARKGSLKNGSMGSPVNQQPKKEN [N23E] | 4.68
LARKGSLKNGSMGSPVNQQPKKCN [N23C] | 4.68
LARKGSLKNGSMGSPVNQQPKKHN [N23H] | 4.91

Variant | protein stability index
LARKGSLKNGSMGSPVNQQPKKKN [N23K] | 4.61
LARKGSLKNGSMGSPVNQQPKKGN [N23G] | 4.66
LARKGSLKNGSMGSPVNQQPKKPN [N23P] | 5.24
LARKGSLKNGSMGSPVNQQPKKLN [N23L] | 4.04
LARKGSLKNGSMGSPVNQQPKKFN [N23F] | 4.19
LARKGSLKNGSMGSPVNQQPKKDN [N23D] | 5.02
LARKGSLKNGSMGSPVNQQPKKIN [N23I] | 4.61
LARKGSLKNGSMGSPVNQQPKKAN [N23A] | 4.63
LARKGSLKNGSMGYPVNQQPKKNN [S14Y] | 4.25
LARKGSLKNGSMGGPVNQQPKKNN [S14G] | 4.8
LARKGSLKNGSMGCPVNQQPKKNN [S14C] | 4.06
LARKGSLKNGSMGRPVNQQPKKNN [S14R] | 4.23
LARKGSLKNGSMGEPVNQQPKKNN [S14E] | 4.75
LARKGSLKNGSMGVPVNQQPKKNN [S14V] | 4.77
LARKGSLKNGSMGNPVNQQPKKNN [S14N] | 4.81
LARKGSLKNGSMGLPVNQQPKKNN [S14L] | 4.5
LARKGSLKNGSMGPPVNQQPKKNN [S14P] | 5.02
LARKGSLKNGSMGIPVNQQPKKNN [S14I] | 4.62
LARKGSLKNGSMGWPVNQQPKKNN [S14W] | 4.13
LARKGSLKNGSMGMPVNQQPKKNN [S14M] | 4.97
LARKGSLKNGSMGKPVNQQPKKNN [S14K] | 4.83
LARKGSLKNGSMGFPVNQQPKKNN [S14F] | 4.3
LARKGSLKNGSMGQPVNQQPKKNN [S14Q] | 4.74
LARKGSLKNGSMGHPVNQQPKKNN [S14H] | 4.96

Variant | protein stability index
LARKGSLKNGSMGTPVNQQPKKNN [S14T] | 4.42
LARKGSLKNGSMGDPVNQQPKKNN [S14D] | 4.96
LARKGSLKNGSMGAPVNQQPKKNN [S14A] | 4.73
LARKGSLKNGSMGSPVNQQPKPNN [K22P] | 4.42
LARKGSLKNGSMGSPVNQQPKSNN [K22S] | 4.41
LARKGSLKNGSMGSPVNQQPKANN [K22A] | 4.51
LARKGSLKNGSMGSPVNQQPKHNN [K22H] | 4.02
LARKGSLKNGSMGSPVNQQPKMNN [K22M] | 4.49
LARKGSLKNGSMGSPVNQQPKNNN [K22N] | 4.43
LARKGSLKNGSMGSPVNQQPKLNN [K22L] | 3.81
LARKGSLKNGSMGSPVNQQPKDNN [K22D] | 4.21
LARKGSLKNGSMGSPVNQQPKFNN [K22F] | 3.56
LARKGSLKNGSMGSPVNQQPKTNN [K22T] | 4.28
LARKGSLKNGSMGSPVNQQPKENN [K22E] | 5.05
LARKGSLKNGSMGSPVNQQPKVNN [K22V] | 3.17
LARKGSLKNGSMGSPVNQQPKGNN [K22G] | 4.54
LARKGSLKNGSMGSPVNQQPKQNN [K22Q] | 4.82
LARKGSLKNGSMGSPVNQQPKRNN [K22R] | 4.37
LARKGSLKNGSMGSPVNQQPKWNN [K22W] | 3.9
LARKGSLKNGSMGSPVNQQPKCNN [K22C] | 4.49
LARKGSLKNGSMGSPVNQQPKINN [K22I] | 3.8
LARKGSLKNGSMGSPVNQQPKYNN [K22Y] | 3.81

Source: the supplement of paper PMC10567573
